Measured values taken from the nanobody polyreactivity screen of Harvey et al. (2022).

Assay: yeast display, Sf9 membrane polyspecificity reagent, FACS + sequencing; frameworks hold sequencing errors
Method in brief: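 Polyreactivity labels are assigned by the sorting gate from which each nanobody was recovered. The gates were low and high (top ~1%), set on anti-HA fluorescence for expression and streptavidin fluorescence for reagent binding. Before sorting, galactose-induced (36–48 hours) yeast display cells were stained for 1 hour at 4 °C with 10% biotinylated, detergent-solubilized Sf9 membrane reagent.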
For “QVQLVESGGGLVQAGGSLRLSCAASGTFKWYAMGWYRQAPGKERELVAVISSSGGTTSYADSVKGRFTITRDNAKNTVYLQMNSLKPEDTAVYYCNRVWSTSMDYWGQGTQVTVSS”, the “polyreactivity (PSR sort gate)” value was “high polyreactivity”. For “QVQLVESGGGLVQAGGSLRLSCAASGTFPDYAMGWYRQAPGKERELVAAITYRGGSTYYADSVKGRFTISRDNAKNTVYLQMNSLKPEDTAVYYCAADVVNAYKSLLVGDMYYWGQGTQVTVSS”, the “polyreactivity (PSR sort gate)” value was “high polyreactivity”. In the case of “QVQLVESGGGLVQAGGSLRLSCAASGTFPGNAMGWYRQPPGKERELVATITRGGRTYYADSVKGRVTISRDNANNTVYLQMNSLKPEDTAVYYCNTSVYSGKIRGYDYGGQGTQVTVSS”, the “polyreactivity (PSR sort gate)” value is reported as “high polyreactivity”. For “QVQLVESGGGLVQAGGSLRLSCAASGTFQRYAMGWYRQAPGKERELVAGISSAGDTNYADSVKGRFTISRDNAKNTVYLQMKSLKPEDTAVYYCNAAYFAGPADDKFDYWGQGTQVTVSS”, the “polyreactivity (PSR sort gate)” value was “low polyreactivity”. In the case of “QVQLVESGGGLVQAGGSLRLSCAASGTFTVNTMGCYRQAPGKERELVAAISTGDTTTYADSVKGRFTISRDNAKNTVYLQMNSLKPEDTAVYYCNVDIGVYAYESDYWGQGTQVTVSS”, the “polyreactivity (PSR sort gate)” value is reported as “low polyreactivity”. For “QVQLVESGGGLVQAGGSLRLSCAASGTFTVNTMGWYRQAPGKVRELVAAISTGDTTTYADSVKGRFTISRDNAKNTVYLQMNSLKPEDTAVYYCIVDIGVYAYESDYWGQGTQVTVSS”, the “polyreactivity (PSR sort gate)” value was “low polyreactivity”. With “QVQLVESGGGLVQAGGSLRLSCAASGTFTVNTMGWYRQAPGKVSELVAAISTGDTTTYADSVKGRFTISRDNAKNTVYFQLNSLKPEDTAVYYCNVDIGVYAYESDYWGQGTQVTVSS” the “polyreactivity (PSR sort gate)” value was “low polyreactivity”. For “QVQLVESGGGLVQAGGSLRLSCAASGTFYGKTMGWYRQAPGKERELDAVISIDGSTNYADSVKGRFTISRDNAKKTVYLQMNSLKPEDTAVYYCNARNQWRTVGKYDYWGQGTQVTVSS”, the “polyreactivity (PSR sort gate)” value was “low polyreactivity”. In the case of “QVQLVESGGGLVQAGGSLRLSCAASGTFYKYAMGWYRQAPGKERELVAAISWRGGRTYADSVKGRFTISRDNANNTVYLQMNSLKPEDTAVYYCAAEYRYDWYTYGYWGQGTQVTVSS”, the “polyreactivity (PSR sort gate)” value is reported as “high polyreactivity”. With “QVQLVESGGGLVQAGGSLRLSCAASGTFYRNAMGWYRQAPGKERELVAAISSGSNTDYADSVKGRFTISRDNAKNTVYVQMNSLKPEDTALYYCNADRGDLYDLRGSGYLDGYWGQGTQVTVSS” the “polyreactivity (PSR sort gate)” value was “low polyreactivity”. For “QVQLVESGGGLVQAGGSLRLSCAASGTIFDVNALGWYRQAPGKERELVAAITSGGGTNYADSVKGRFTISRDNAKNTVYLQMNSLKPEDTAVYYCAADHVYYDYDYWGQGTQVTVSS”, the “polyreactivity (PSR sort gate)” value was “low polyreactivity”. In the case of “QVQLVESGGGLVQAGGSLRLSCAASGTIFGEYAMGWYRQAPAKERELVADITTGGNTNYADSVKGRFTISRDNAKNTVYLQMNSLTPEATAVYYCAADFFSRDWGQGTQVTVSS”, the “polyreactivity (PSR sort gate)” value is reported as “low polyreactivity”. With “QVQLVESGGGLVQAGGSLRLSCAASGTIFNRYAMGWYRQAPGKERELVAAITRGGTTYYADSVKGRFTISRDNATNTVYLQMNSLKPEDTAVYYCAARLRYTTVIYYYWGQGTQVTVSS” the “polyreactivity (PSR sort gate)” value was “high polyreactivity”. For “QVQLVESGGGLVQAGGSLRLSCAASGTIFYDNDMGLYRQAPGKERELVAAISWSASDTYYADSVKGRFTISRDNAKNTVFLQMMSLKPEDTAVYYCNAEVYEWYVVYSALDYWGQVTQVTVSS”, the “polyreactivity (PSR sort gate)” value was “low polyreactivity”. In the case of “QVQLVESGGGLVQAGGSLRLSCAASGTLSSYAMGWYRQAPGKERELVAAISLSGGSTYADSVKGRFTISRDNAKNTVYLQMNSLKPEDTAVYYCAKDWDVDITWSFSIYNYWGQGTQVTVSS”, the “polyreactivity (PSR sort gate)” value is reported as “low polyreactivity”. With “QVQLVESGGGLVQAGGSLRLSCAASGTTFGYNAMGWYRQAPGKERELVAAITSGGSTNYADSVKGRFTISRDNAKNTVYLQMNSLKPEDTAVYYCDKRGYYHYYWGQGTQVTVSS” the “polyreactivity (PSR sort gate)” value was “high polyreactivity”. For “QVQLVESGGGLVQAGGSLRLSCAASGTTFPKYAMGWYRQAPGKERELVAAITRGGRTYYADSVKGRFTISRDNANNTVYLQMNSLKPEDTAVYYCAVVGYARVGMYDYWGQGSQVTVSS”, the “polyreactivity (PSR sort gate)” value was “high polyreactivity”. With “QVQLVESGGGLVQAGGSLRLSCAASGTTFTRYAMGWYRQAPGKERELVAAISRTGGSRTYYADSVKGRFTISRDNAKNTVYLHMNSLKPEDTAVYYCAKGYWRYLGFLYFFPARDYWGQGTQVTVSS” the “polyreactivity (PSR sort gate)” value was “high polyreactivity”. In the case of “QVQLVESGGGLVQAGGSLRLSCAASGTTFYNYAMGWYRQAPGQERELVAAISKTGGSTYYADSVKGRFTISRDNAKNTVYLQMNSLKPEDTAVYYCNAVALYPYTTYHYWGQGTQVTVSS”, the “polyreactivity (PSR sort gate)” value is reported as “high polyreactivity”. In the case of “QVQLVESGGGLVQAGGSLRLSCAASGTTYYNAMGWYRQAPGKERELVAAIRFRSGSTYYADSVKGRFTISRDNAKNTVFLQMNSLKPEDTAVYYCNIVPYRGYRRYGYWGQGTHVTVSS”, the “polyreactivity (PSR sort gate)” value is reported as “high polyreactivity”. In the case of “QVQLVESGGGLVQAGGSLRLSCAASGVIFSLYAMGWYRQAPGKERELVAVITWSDGRTYYADSVKGRFTISRDNAKNTVYLQMNSLKPEDTAVYYCAAADWITEYDYWGQGTHVTVSS”, the “polyreactivity (PSR sort gate)” value is reported as “low polyreactivity”. For “QVQLVESGGGLVQAGGSLRLSCAASGVIFWEYAMGWYRQAPGKERELVAAISTSGGSTYYADSVKGRFTISRDNAKNTVYLQMISLKPEDTAVYYCAVDGWDDTYFRQDMDYWGQGTQVTVSS”, the “polyreactivity (PSR sort gate)” value was “low polyreactivity”. With “QVQLVESGGGLVQAGGSLRLSCAASGVIFYDYAMGWYRQAPGKERELVAAISSGGSTNYADSVKGRFTISRDNAKNTVYLQMNSLKPEDTAVYYCAADDRSYATWKRDYDYWGQGTQVTVSS” the “polyreactivity (PSR sort gate)” value was “low polyreactivity”. For “QVQLVESGGGLVQAGGSLRLSCAASGVIFYRYAMGWYRQAPGKERELVAAITRSGGTTYYADSVKGRFTISRDNAKNTVYLQMNSLKPEDTAVYYCAARVTPGRNGGGYWGQGTQVTVSS”, the “polyreactivity (PSR sort gate)” value was “high polyreactivity”. For “QVQLVESGGGLVQAGGSLRLSCAASGVILYFHAMGWYRQAPGKERELVAAITSDGGSTYYADSVKGRFTISRDDAKNTVYLQMNSLKPEDTAVYYCAADASTWYTEEYWGQGTQVTVSS”, the “polyreactivity (PSR sort gate)” value was “low polyreactivity”. For “QVQLVESGGGLVQAGGSLRLSCAASGVNAMGWYRQAPGKEREIVAAITSIGGSTYYADSVKGRFTISRDNAKNTVSLQMNSLKPEDTAVYYCNTDRGPVKVSPLYESWGQGTQVTVSS”, the “polyreactivity (PSR sort gate)” value was “low polyreactivity”. With “QVQLVESGGGLVQAGGSLRLSCAASGVTFIYYTMGWYRQAPGKERDLVATISRRGDSPYYADSVKGRFTISRDNAKNTVYLQMNSLKPEDTAVYYCNAVTRAAYWWTARSTDYDYWGQGTLVTVSS” the “polyreactivity (PSR sort gate)” value was “high polyreactivity”. In the case of “QVQLVESGGGLVQAGGSLRLSCAASGVTFNYNAMGWYRQAPGKERELVATITGSTYYADSVKGRFTISRDNAKNTVYLQMNSLKPEDTAVYYCTADASLVLAEYDYWGQGTQVTVSS”, the “polyreactivity (PSR sort gate)” value is reported as “low polyreactivity”. With “QVQLVESGGGLVQAGGSLRLSCAASGVTFSLNTMGWYRQSPGKERELVAAINSGDSTYADSVKGRFTISRDNAKNTVYVQMNSLKPEDTAVYYCTADPDWWYPYNYWGQGTQVTVSS” the “polyreactivity (PSR sort gate)” value was “low polyreactivity”. For “QVQLVESGGGLVQAGGSLRLSCAASGYICVRYAMGWYRQAPGKEREFVAAISSSGGSTRYADSVKGRFTISRDNAKNTVYLQMNSLKPEDTAVYYCAATRVARHGSPMYYWGQGTQVTVSS”, the “polyreactivity (PSR sort gate)” value was “high polyreactivity”. With “QVQLVESGGGLVQAGGSLRLSCAASGYIFAYNTMGWYRQAPGKERELVAAISRSGGSTYYADSVKGRFTISRDNAKNTVYLQMNSLKPEDTAVYYCAARYAPLDFRFDYWGQGTQVTVSS” the “polyreactivity (PSR sort gate)” value was “high polyreactivity”. For “QVQLVESGGGLVQAGGSLRLSCAASGYIFDIYDMGWYRQATGKERELVAAITDYADSVKGRFTISRDNAKNTVYLQMNSLKPEDTAVYYCNVKFLVQPVTSVIGDYWGQGTQVTVSS”, the “polyreactivity (PSR sort gate)” value was “low polyreactivity”.
